Assay [1] concerns the target T1, full-length CD40 on cells (transfected CHO-S cells, Raji B-cell line, primary B cells) (human, UniProt P25942 21-277).
T1 construct: whole, on cells; also called target expressing cells
The assay can be described thus: flow cytometry on transfected and endogenously expressing cells (Fig. 6B). On the technique in general: A flow cytometer gives signals particle by particle.

The target in assay [2] is T2, full-length 4-1BB on cells (transfected CHO-S cells, in vitro activated CD4 positive T-cells) (human, UniProt Q07011 24-255).
T2 construct: whole, on cells; also called target expressing cells
T2 sequence (Q07011 24-255): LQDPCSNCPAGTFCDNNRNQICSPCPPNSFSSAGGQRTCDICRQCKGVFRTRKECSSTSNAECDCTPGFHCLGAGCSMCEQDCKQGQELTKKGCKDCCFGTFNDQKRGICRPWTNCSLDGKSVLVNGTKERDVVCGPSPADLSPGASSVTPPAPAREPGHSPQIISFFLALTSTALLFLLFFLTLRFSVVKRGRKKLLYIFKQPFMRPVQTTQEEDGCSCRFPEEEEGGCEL
Described as above.

For assay [3], the target named is T1, full-length CD40 on cells (transfected …). Put plainly: flow cytometry on transfected and endogenously expressing cells (Fig. 6A).
Assay [4] deals with T3, full-length OX40 on cells (transfected CHO-S cells, in vitro activated CD4 positive T-cells) (human, UniProt P43489 29-277).
T3 construct: whole, on cells; also called 0X40; target expressing cells
T3 sequence (looked up): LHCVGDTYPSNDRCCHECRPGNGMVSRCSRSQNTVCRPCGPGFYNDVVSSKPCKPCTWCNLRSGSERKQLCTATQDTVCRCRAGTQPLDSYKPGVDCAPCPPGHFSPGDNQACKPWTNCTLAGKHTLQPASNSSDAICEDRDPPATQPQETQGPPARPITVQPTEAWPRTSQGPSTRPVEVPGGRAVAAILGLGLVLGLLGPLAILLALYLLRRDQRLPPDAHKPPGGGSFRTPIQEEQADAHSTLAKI
The description is as above.

Assay [5] deals with T1, full-length CD40 on cells (transfected …). The assay can be described thus: flow cytometry on overexpressing or endogenously expressing cells (Fig. 7).
For assay [6], the target named is T3, full-length OX40 on cells (transfected …). Described as above.
Assay [7] has the same target. Put plainly: flow cytometry on transfected and endogenously expressing cells (Fig. 6C).
For assay [8], the target named is T2, full-length 4-1BB on cells (transfected …). The assay is described as above.

T1 sequence (P25942 21-277): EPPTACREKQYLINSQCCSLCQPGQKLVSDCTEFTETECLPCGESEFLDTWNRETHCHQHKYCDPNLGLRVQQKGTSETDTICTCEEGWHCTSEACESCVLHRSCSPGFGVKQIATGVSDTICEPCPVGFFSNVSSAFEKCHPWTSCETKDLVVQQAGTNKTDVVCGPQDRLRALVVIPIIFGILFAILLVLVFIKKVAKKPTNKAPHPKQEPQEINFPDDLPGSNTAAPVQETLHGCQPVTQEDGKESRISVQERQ

B1: tetra VH IgG #4 (VH-CH1=41BB #4, VH-CL=CD40 #3) (bispecific antibody, V domains shown, not shown: a dimerising Fc or GST)
V domain 1: EVQLLESGGGLVQPGGSLRLSCAASGFTFGDYAMSWFRQAPGKGLEWVAVLSYDGSNTDYADSVKGRFTISRDNSKNTLYLQMNSLRAEDTAVYYCAKGPLILAAGNYWGQGTLVTVSS
V domain 2: EVQLLESGGGLVQPGGSLRLSCAASGFTFSSYAMSWVRQAPGKGLEWVSRLNSDGITATYADSVKGRFTISRDNSKNTLYLQMNSLRAEDTAVYYCARGKIPAIDHWGQGTLVTVSS
notes: Human IgG1 format with a VH in place of the VL; no VL domain; also called tetra VH lgG#4; anti-41 BB/CD40 tetra-VH IgG
Regarding B1, the binding result in assay [1] and in assay [2] was “binds” each time.

B2: tetra VH IgG #2 (VH-CH1=OX40 #2, VH-CL=CD40 #5) (bispecific antibody, V domains shown, not shown: a dimerising Fc or GST)
V domain 1: EVQLLESGGGLVQPGGSLRLSCAASGFTFSSYAMSWVRQAPGKGLEWVSGVSGGGGSTYYADSVRGRFTISRDNSKNTLYLQMNSLRAEDTAVYYCARGWDDINVWGQGTLVTVSS
V domain 2: EVQLLESGGGLVQPGGSLRLSCAASGFTFSSYTMDWVRQAPGKGLEWVSSISESGDTTDYADSVKGRFTISRDNSKNTLYLQMNSLRAEDTAVYYCARCSGGSCYSVNWGQGTLVTVSS
notes: Human IgG1 format with a VH in place of the VL; no VL domain; also called anti-CD40/OX40 tetra-VH IgG; OX40/CD40 bispecific antibody
Turning to B2, the binding result in assay [3] and in assay [4] was “binds” in each case.

B3: tetra VH IgG #5 (VH-CH1=CD40 #5, VH-CL=OX40 #2) (bispecific antibody, V domains shown, not shown: a dimerising Fc or GST)
V domain 1: B2 V domain 2
V domain 2: B2 V domain 1
notes: Human IgG1 format with a VH in place of the VL; no VL domain; also called tetra VH lgG#5
As for B3, the binding result in assay [5] and in assay [6] was “binds” in each case.

B4: tetra VH IgG #20 (VH-CH1=41BB #4, VH-CL=OX40 #2) (bispecific antibody, V domains shown, not shown: a dimerising Fc or GST)
V domain 1: B1 V domain 1
V domain 2: B2 V domain 1
notes: Human IgG1 format with a VH in place of the VL; no VL domain; also called anti 0X40/41 BB tetra-VH IgG
As for B4, the binding result in assay [7] and in assay [8] was “binds” each time.

Source of the values: patent publication WO2021084104A1 (dated 2021).
